# Test results taken from PMC12376665.
# Molecular target: SlAVT6A (split-ubiquitin bait fusion) (tomato (Solanum lycopersicum))
# Sequence (main, as listed by the source): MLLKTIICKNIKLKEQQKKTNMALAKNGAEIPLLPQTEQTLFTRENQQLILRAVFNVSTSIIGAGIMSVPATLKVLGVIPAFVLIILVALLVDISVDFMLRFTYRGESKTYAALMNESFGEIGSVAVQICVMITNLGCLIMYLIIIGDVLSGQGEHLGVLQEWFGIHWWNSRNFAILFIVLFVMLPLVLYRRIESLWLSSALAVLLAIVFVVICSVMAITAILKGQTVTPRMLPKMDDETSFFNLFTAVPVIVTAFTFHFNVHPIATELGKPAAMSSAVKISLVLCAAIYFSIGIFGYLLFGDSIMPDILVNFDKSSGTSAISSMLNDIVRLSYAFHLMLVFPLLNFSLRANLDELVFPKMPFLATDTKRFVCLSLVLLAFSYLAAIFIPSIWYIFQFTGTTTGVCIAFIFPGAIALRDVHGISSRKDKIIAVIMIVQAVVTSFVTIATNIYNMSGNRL
substance,measurement,value
SlAVT6B (split-ubiquitin prey fusion) (from UniProt A0A3Q7FT69 1-472) (natural protein),"amino acid content in the liquid culture of yeast co-expressing SlAVT6A and SlAVT6B, relative to SlAVT6A expressed alone",21.8%
same,"efflux activity for amino acids in yeast co-expressing SlAVT6A and SlAVT6B, compared to only SlAVT6A expressing",65%
